Reference: article PMC12241658
Where “and” joins values, the source holds several entries; their conditions need not be identical. Identical values can stand only once.

What was measured:
[1] = molecular target: recombinant human αβ hemoglobin (αβHb dimer) (human) (UniProt P69905); assay: BLI
[2] = molecular target: recombinant human αβ hemoglobin, 6x His tag on the N-terminus of the α subunit (αβHb dimer) (human) (UniProt P69905); assay: BLI
[3] = molecular target: recombinant human adult hemoglobin (αβHb), αβ dimer (human) (UniProt P69905); assay: BLI
[4] = molecular target: ChuA (E. coli CFT073)

Molecule: ChuA (receptor)
- koff [1]: 0.0574 s⁻¹ and 0.0531 s⁻¹
- kon [1]: 144000 M⁻¹ s⁻¹ and 118000 M⁻¹ s⁻¹

Molecule: ChuA (outer membrane heme transporter, TonB-dependent transporter) from E. coli CFT073 (receptor)
- koff [2]: 0.0574 s⁻¹ and 0.0449 s⁻¹ and 0.0512 s⁻¹
- kon [2]: 158000 M⁻¹ s⁻¹ and 144000 M⁻¹ s⁻¹ and 173000 M⁻¹ s⁻¹

Molecule: ChuA, outer membrane TonB-dependent heme/hemoglobin transporter of E. coli CFT073 (receptor)
- Kd [3]: 71.5 nM

B1: recombinant human myoglobin (natural protein)
chain: MGLSDGEWQLVLNVWGKVEADIPGHGQEVLIRLFKGHPETLEKFDKFKHLKSEDEMKASEDLKKHGATVLTALGGILKKKGHHEAEIKPLAQSHATKHKIPVKYLEFISECIIQVLQSKHPGDFGADAQGAMNKALELFRKDMASNYKELGFQG
- EC50 of the growth of E. coli ΔTBDT:ChuOP in LB liquid medium with 200 µM 2,2'-bipyridine, supplemented with serially diluted myoglobin (nonlinear regression, three parameters) [4]: 24200 nM

B2: recombinant human neuroglobin (natural protein)
chain: MERPEPELIRQSWRAVSRSPLEHGTVLFARLFALEPDLLPLFQYNCRQFSSPEDCLSSPEFLDHIRKVMLVIDAAVTNVEDLSSLEEYLASLGRKHRAVGVKLSSFSTVGESLLYMLEKCLGPAFTPATRAAWSQLYGAVVQAMSRGWDGE
- EC50 of the growth of E. coli ΔTBDT:ChuOP in LB liquid medium with 200 µM 2,2'-bipyridine, supplemented with serially diluted neuroglobin (nonlinear regression, three parameters) [4]: 826 nM
